In paper PMC11682927:

Target: His-BACH1-BTB (amino acids 7-128) (human) (UniProt O14867)
Assay: SEC-MALS

Tag-free FBXO22-SKP1 complex, sequence (Q8NEZ5 whole entry): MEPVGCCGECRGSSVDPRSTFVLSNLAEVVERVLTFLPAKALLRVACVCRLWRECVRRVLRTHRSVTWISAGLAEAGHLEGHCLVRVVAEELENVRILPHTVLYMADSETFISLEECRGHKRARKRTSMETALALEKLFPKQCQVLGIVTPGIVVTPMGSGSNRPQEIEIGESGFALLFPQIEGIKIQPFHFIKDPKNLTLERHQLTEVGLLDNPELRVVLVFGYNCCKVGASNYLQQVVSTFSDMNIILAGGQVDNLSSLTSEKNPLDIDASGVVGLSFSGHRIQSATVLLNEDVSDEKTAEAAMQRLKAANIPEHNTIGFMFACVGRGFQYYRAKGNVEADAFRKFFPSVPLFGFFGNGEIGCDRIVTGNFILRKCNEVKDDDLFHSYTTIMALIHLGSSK
Tag-free FBXO22-SKP1 complex, sequence (P63208 whole entry): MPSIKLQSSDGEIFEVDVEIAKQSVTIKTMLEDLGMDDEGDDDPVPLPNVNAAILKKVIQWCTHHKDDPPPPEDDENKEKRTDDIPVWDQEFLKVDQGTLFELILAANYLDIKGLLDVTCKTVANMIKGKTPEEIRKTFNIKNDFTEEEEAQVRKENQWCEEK
His-BACH1-BTB (amino acids 7-128) (human), sequence (O14867 7-128): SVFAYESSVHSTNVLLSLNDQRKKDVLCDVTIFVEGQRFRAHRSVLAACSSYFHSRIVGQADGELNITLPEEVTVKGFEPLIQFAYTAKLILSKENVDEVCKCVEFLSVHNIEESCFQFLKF

“Tag-free FBXO22-SKP1 complex (from UniProt Q8NEZ5 1-403; P63208 1-163)” was tested, and the stoichiometry N (FBXO22-SKP1 per BACH1 BTB dimer) was 1.
